Test [1] has as its target human CD137-Fc chimeric protein (human) (UniProt Q07011). Put plainly: SPR (Biacore T200); CD137-Fc captured by anti-human Fc. For orientation: In SPR one partner is held on a chip, and binding of the other changes the refractive index at the surface.
The target in test [2] is human PD-L1-Fc chimeric protein (human) (UniProt Q9NZQ7). Put plainly: SPR (Biacore T200); PD-L1-Fc captured by anti-human Fc.

Bounds are passed on as bounds.

human CD137-Fc chimeric protein (human), sequence (Q07011 24-186, change not shown): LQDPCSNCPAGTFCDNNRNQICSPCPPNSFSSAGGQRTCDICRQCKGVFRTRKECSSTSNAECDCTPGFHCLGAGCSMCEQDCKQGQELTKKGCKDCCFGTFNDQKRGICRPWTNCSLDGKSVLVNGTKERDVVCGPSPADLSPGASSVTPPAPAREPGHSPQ

B1: PRO1124: 38-02-A04 sc06 Full scDb-i/33_03_G02 sc01 scDb-o (bispecific antibody)
chain: DIQMTQSPSSLSASVGDRVTITCQASQSINDYLAWYQQKPGKAPKLLIYKASTLASGVPSRFSGSGSGTDFTLTISSLQPEDFATYYCQQGYIITDIDNVFGTGTKVTVLGGGGGSQVQLQESGPGLVKPSETLSLTCKASGFSFSNSYWICWVRQPPGKGLEWIGCTFVGSSDSTYYANWAKGRVTISKDSSKNQVSLKLSSVTAADTAVYFCARHPSDAVYGYANNLWGQGTLVTVSSGGGGSGGGGSGGGGSGGGGSLQMTQSPSSLSASVGDRVTITCQASQSINNVLAWYQQKPGKPPKLLIYRASTLASGVPSRFSGSGSGTDFTLTISSLQPEDFATYYCQSSYGNYGDFGTGTKVTVLGGGGGSQVQLQESGPGLVKPSETLSLTCKVSGFSFSSGYDMCWIRQPPGKGLEWIGCVVAGSVDITYYASWAKGRVTISVDSSKNQFSLKLSSVTAADTAVYYCARKDAYSDAFNLWGQGTLVTVSS
In the case of B1, the fold improvement of affinity against PRO885 in test [1] was above 200 fold.

B2: PRO1126: 38-02-A04 sc01 scDb-i/33_03_G02 sc03 Full scDb-o (bispecific antibody)
chain: DFQLTQSPSSLSASVGDRVTITCQASQSINDYLAWYQQKPGKSPKLLIYKASTLASGVPSRFSGSGSGTDFTLTISSLQPEDFATYYCQQGYIITDIDNVFGTGTKVTVLGGGGGSQVQLQESGPGLVKPSETLSLTCKVSGFSFSNSYWICWIRQPPGKGLEWIGCTFVGSSDSTYYANWAKGRVTISVDSSKNQFSLKLSSVTAADTAVYYCARHPSDAVYGYANNLWGQGTLVTVSSGGGGSGGGGSGGGGSGGGGSIQMTQSPSSLSASVGDRVTITCQASQSINNVLAWYQQKPGKAPKLLIYRASTLASGVPSRFSGSGSGTDFTLTISSLQPEDFATYYCQSSYGNYGDFGTGTKVTVLGGGGGSQSQLQESGPGLVKPSETLSLTCKASGFSFSSGYDMCWVRQPPGKGLEWIACVVAGSVDITYYASWAKGRVTISKDSSKNQVSLKLSSVTAADTAVYFCARKDAYSDAFNLWGQGTLVTVSS
B2 returned a fold improvement in affinity against the CDR graft (PRO885) in test [2] of 20 fold.

The values above are taken from patent publication EP3470428A1.
